From patent US20230212285A1

Assays:
[1] = target: human FcγRI, His6-tagged (human) (UniProt P12314); test: SPR, 1:1 kinetic
[2] = target: human FcγRIIb, His6-tagged (human) (UniProt P31994); test: SPR, steady state
Chain of human FcγRIIb, His6-tagged (human) (P31994 43-217 limits assumed): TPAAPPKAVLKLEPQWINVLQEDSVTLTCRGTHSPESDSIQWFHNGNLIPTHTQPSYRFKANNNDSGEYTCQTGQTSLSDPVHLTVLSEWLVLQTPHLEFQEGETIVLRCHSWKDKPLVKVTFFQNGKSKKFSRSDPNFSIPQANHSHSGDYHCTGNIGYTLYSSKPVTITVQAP

Chain of human FcγRI, His6-tagged (human) (P12314 16-288 limits assumed): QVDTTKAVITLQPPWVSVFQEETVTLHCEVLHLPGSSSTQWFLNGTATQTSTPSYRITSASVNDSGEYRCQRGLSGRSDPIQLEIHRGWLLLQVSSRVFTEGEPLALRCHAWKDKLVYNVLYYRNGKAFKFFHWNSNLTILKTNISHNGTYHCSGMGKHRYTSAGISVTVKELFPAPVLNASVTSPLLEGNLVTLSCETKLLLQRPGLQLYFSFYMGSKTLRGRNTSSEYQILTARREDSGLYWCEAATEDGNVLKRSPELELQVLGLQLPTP

Work on isotype control human IgG4 (antibody) yielded a Kd [1] of 0.00925 µM and a Kd [2] of 23.1 µM.
